Here are results for one molecule from US20200231670A1 (AGENSYS, published 2020).

The target of assay [1] is T1, recombinant extracellular domain of human Nectin-4 protein (fragment aa 31-346) (human, UniProt Q96NY8 31-346).
T1 construct: Made in E. coli with a 6xHN tag from a pET vector; The primary screen used aa 31-346; The secondary screen also used a 293FT-made fragment, printed as aa 1-346 in one place and aa 1-348 in another, with a myc-his tag; also called 6xHN-tagged Nectin 4 (aa 31-346); Nectin-4 extracellular domain fragment (amino acid residues 31-346)
T1 sequence: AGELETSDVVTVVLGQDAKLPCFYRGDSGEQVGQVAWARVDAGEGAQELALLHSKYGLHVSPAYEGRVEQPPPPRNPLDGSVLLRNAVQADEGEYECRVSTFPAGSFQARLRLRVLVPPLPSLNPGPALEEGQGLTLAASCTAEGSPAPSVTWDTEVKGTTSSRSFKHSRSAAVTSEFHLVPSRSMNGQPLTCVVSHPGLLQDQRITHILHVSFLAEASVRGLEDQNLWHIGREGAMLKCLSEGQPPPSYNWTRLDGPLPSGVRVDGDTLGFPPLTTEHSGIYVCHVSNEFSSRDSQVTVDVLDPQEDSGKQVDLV
The experiment in a line: ELISA. For orientation: In an ELISA, binding on a coated surface is turned into a signal by an enzyme label.

The target of assay [2] is T2, Nectin-4 fragment V (amino acid residues 1-150 of human Nectin-4) (human, UniProt Q96NY8 32-150).
T2 construct: Expressed in transfected cells and tested as a reduced RIPA lysate on a Western blot; Any tag or membrane anchor of the construct is not described; also called V fragment/domain
T2 sequence: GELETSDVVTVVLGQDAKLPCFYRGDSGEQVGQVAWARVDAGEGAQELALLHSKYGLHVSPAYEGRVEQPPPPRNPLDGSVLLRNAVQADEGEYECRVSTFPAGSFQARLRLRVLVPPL
The experiment in a line: Western blot of cell lysates (FIG. 13). The procedure:
The cells expressing various Nectin-4 fragments were cultured and lysed in RIPA buffer. […] A 1:10000 dilution of a-GAPDH antibody (Chicken pAb, Millipore) was used detect GAPDH as a loading control. Antibodies bound to the protein bands were then detected with either 1:5000 dilution of Goat-anti-Mouse antibody conjugated with IRDye 680 (Odyssey) or 1:5000 Donkey anti-a-Chicken conjugated with IRDye 800 (Odyssey) and visualized in Odyssey system.
For orientation: In western blotting, separated proteins are transferred to a membrane and probed.

Assay [3] addresses T3, Nectin-1 over-expressed by engineered Rat1(E) cells (UniProt Q15223 31-517, limits assumed).
T3 construct: whole, on cells; also called Rat1(E)-Nectin-1; Rat1(E) Nectin1
T3 sequence (looked up): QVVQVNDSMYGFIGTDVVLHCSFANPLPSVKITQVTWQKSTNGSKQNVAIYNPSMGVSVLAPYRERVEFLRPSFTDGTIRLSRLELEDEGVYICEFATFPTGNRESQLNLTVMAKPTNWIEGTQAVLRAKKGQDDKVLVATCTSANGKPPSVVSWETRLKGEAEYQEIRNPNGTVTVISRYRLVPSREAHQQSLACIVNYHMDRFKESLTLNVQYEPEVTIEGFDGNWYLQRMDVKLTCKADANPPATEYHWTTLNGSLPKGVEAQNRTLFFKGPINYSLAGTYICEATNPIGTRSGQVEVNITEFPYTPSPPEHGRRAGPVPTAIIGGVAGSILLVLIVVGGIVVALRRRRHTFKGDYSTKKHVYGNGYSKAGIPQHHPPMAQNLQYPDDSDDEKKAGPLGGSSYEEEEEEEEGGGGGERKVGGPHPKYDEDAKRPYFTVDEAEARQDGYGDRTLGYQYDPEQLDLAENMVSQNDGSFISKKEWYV
The experiment in a line: IHC, FFPE Rat1(E) cells expressing Nectin-1.

Assay [4] has as its target T4, Nectin-2 over-expressed by engineered Rat1(E) cells (UniProt Q92692 32-538, limits assumed).
T4 construct: whole, on cells; also called Rat1(E)-Nectin-2; Rat1(E) Nectin2
T4 sequence (looked up): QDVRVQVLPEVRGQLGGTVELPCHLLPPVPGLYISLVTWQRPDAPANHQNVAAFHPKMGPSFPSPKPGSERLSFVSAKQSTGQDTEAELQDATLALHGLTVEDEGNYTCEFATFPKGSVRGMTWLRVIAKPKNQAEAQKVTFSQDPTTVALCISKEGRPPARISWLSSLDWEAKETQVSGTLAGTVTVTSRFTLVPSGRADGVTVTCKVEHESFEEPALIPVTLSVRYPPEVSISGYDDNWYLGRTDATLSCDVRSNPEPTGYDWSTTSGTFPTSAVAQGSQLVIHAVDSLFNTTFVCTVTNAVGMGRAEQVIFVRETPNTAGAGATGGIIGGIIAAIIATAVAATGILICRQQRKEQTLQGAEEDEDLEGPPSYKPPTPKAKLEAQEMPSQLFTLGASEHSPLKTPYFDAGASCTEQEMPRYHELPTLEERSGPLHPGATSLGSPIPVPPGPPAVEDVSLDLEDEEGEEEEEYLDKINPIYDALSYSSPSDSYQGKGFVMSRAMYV
The assay can be described thus: IHC, FFPE Rat1(E) cells expressing Nectin-2. The procedure:
(§1) IHC staining was performed according to the following exemplary protocols. Briefly, an indirect IHC technique was used to detect Nectin-4 in the IHC assay. The samples were fixed in 10% buffered neutral formalin, processed and embedded into paraffin wax, and prepared as 4 μm tissue sections. After deparaffinization and re-hydration, sections were treated for antigen retrieval. The antigen epitopes in Nectin-4 were retrieved, for example, by application of heat to the tissue sections in an aqueous medium, commonly referred to as a Heat-Induced Epitope Retrieval (HIER) procedure. […] The tissue sections bound with primary antibodies were washed and detected with an enzyme-labeled, e.g. peroxidase-labeled, secondary antibody. […] The stained tissue sections were then scanned, imaged, and evaluated with light microscopy, for example, using an Aperio ScanScope CS (Aperio, Vista, Calif.).
(§2) To assess the level of Nectin-4 expression in the tissue sections by the level of antibody staining, stained tissue sections were assessed, evaluated, categorized, and recorded into different categories or scores according to the intensity of the IHC staining and cancer cell positivity ratio. […] Lack of specific staining was recorded as negative (“0” or interchangeably with as “−”).

The target of another assay is T5, human Nectin-4 (human, UniProt Q96NY8 32-510).
T5 construct: As expressed in human tumour xenograft tissues, human cell lines (T47D, NCI H322M) and Rat1(E) cells engineered to overexpress Nectin-4; Tested as FFPE sections (IHC) or as reduced lysates (Western blot); also called PVRL4; poliovirus receptor-related protein 4
T5 sequence: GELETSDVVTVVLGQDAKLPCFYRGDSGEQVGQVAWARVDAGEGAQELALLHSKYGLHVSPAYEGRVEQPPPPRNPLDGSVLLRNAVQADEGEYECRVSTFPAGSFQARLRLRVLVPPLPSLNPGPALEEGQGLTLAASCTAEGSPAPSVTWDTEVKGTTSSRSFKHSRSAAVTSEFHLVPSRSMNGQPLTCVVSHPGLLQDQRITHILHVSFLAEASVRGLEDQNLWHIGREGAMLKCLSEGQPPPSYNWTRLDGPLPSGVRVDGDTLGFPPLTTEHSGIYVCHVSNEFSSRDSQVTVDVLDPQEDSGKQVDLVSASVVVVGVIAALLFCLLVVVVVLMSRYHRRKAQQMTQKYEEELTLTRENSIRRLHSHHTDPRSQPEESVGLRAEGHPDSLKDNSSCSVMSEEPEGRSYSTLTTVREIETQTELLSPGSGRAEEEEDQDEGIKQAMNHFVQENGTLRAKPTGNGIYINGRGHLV
The assay can be described thus: IHC score, FFPE xenograft AG-OV35, 2.5 µg/mL. The procedure: as §1, §2

B1: M22-321b41.1 anti-Nectin-4 mouse monoclonal antibody (antibody, mouse IgG2a, kappa, V domains shown)
VH: QVQLQQSGAELARPGASVKLSCKASGYTFTTYWMQWVKQRPGQGLEWIGSIYPGDGDTRYTQKFKGKATLTADKSSSTAYIQLSTLASEDSAVYYCAREYYGLDYWGQGTTLTVSS
VL: DIVMTQAAFSNPVTLGTSASISCRSSKSLLHSNGITYLYWYLQKPGQSPQLLIYHMSNLASGVPDRFTSSGSGTDFTLRISRVEAEDVGVYYCAQNLELPFTFGGGTKLETKR
notes: Mouse IgG2a kappa from hybridoma M22-321b41.1 (ATCC PTA-124245), protein A purified; also called mAb M22-321b41.1; M22-321b1.1
Consider B1, for which the binding result in assay [1] is “binds”; in assay [2], “binds”; in assay [3], “no binding (tested: 2.5 µg/mL)”; in assay [4] it was “no binding (tested: 2.5 µg/mL)”; with human Nectin-4, “binds”.
